These results are taken from the DeepSol protein solubility set.

This series is described as follows: soluble on expression in E. coli; label from the status in PepcDB or PDB records.
For “MSLIVNFHKVNLKKKYPLQISRGTHSKSQNLFVEIIKDGITGWGESAPGKTEGASNADEVEKWLLKLIDTGIDSLSIYEIFQRSKDLNIPPCVHAAIDIALWDWKAKKAGLPLNNLLGLPTPSTPTSLTIGINPPEIIKERVEMLLSNPQIKALKIKLGSPDGIEYDKSIYSQVLESTKKSNISIRVDANGGWSLDEAKLMMKWLAERKAEYIEQPLVEGEEDKLKYLFKSRPLPIFIDESCRFSEDVARHFEYVDGVNLKLMKCGGITEALRILNVAKSHNLKTMIGCMSESSISISAGASISGIIDYVDLDSHYNLDPDPSEGATMIDGITMNDNKPGHGSKLKIENYAEGHHHHHH”, the “soluble on expression in E. coli” value is given as “soluble”.

Consider “MKAFEFLYEDFQRGLTVVLDKGLPPKFVEDYLKVCGDYIDFVKFGWGTSAVIDRDVVKEKINYYKDWGIKVYPGGTLFEYAYSKGKFDEFLNECEKLGFEAVEISDGSSDISLEERNNAIKRAKDNGFMVLTEVGKKMPDKDKQLTIDDRIKLINFDLDAGADYVIIEGRESGKGKGLFDKEGKVKENELDVLAKNVDINKVIFEAPQKSQQVAFILKFGSSVNLANIAFDEVISLETLRRGLRGDTFGKV”, for which the “soluble on expression in E. coli” value is “soluble”. The same measure for “QVQLQQSGAELVKPGASVKMSCKASGYTFTTYPIEWMKQNHGKSLEWIGNFHPYSDDTNYNEKFKGKAKLTVEKSSSTVYLEFSRLTSDDSAVYYCAIHYGSAYAMDYWGQGTSVTVSS”: “soluble”.

For “SLQTEESICTKIMKELHSEDSPNALVIKNEHVKKCDTWPSGGEMVVKDLTVKYVDDGNAILENISFSISPGQRVGLLGRTGSGKSTLLSAFLRMLNIKGEIQIDGVSWNSMTLQEWRKAFGVITQKVFIFSGTFRQNLDPNGKWRDEEIWKVADQVGLKSVIEQFPGQLNFTLVDGGYVLSHGHKQLMCLARSVLSKAKIILLDQPSANLDPITYQVIRRVLRQAFAGCTVVLCEHRIEAMLDCQRFLVIEQGNVWQYESLQALLSEKSVFQRALSSSEKMKLFHGRHSSKQKPRTQITAVKEETEEEVQETRL”, the “soluble on expression in E. coli” value is “not soluble”. The same measure for “MSLKKIQFFDTTLRDGEQTPGVNFDVKEKIQIALQLEKLGIDVIEAGFPISSPGDFECVKAIAKAIKHCSVTGLARCVEGDIDRAEEALKDAVSPQIHIFLATSDVHMEYKLKMSRAEVLASIKHHISYARQKFDVVQFSPEDATRSDRAFLIEAVQTAIDAGATVINIPDTVGYTNPTEFGQLFQDLRREIKQFDDIIFASHCHDDLGMATANALAAIENGARRVEGTINGIGERAGNTALEEVAVALHIRKDFYQAETNIVLNQFKNSSDLISRLSGMPVPRNEGHHHHHH”: “soluble”. The result for “MASFVTSKRDFRARAHSNPLNDAEFLVPEDPLRFDWSPFIPDVGSHPIDYVDLGCGYGGLLCELSIAFPNKYMLGMEIRDRVASYCVTKLEELRRLNSKGYRNIGFIRTNCMKFLPFYFPPSSVEKFFICFPDPHFKKKKHRQRLVSLRFLSEAAYCLRPGGMIYIVTDVEELFAWMTNLFAQHPLFLTMDKELVKQQDVLLPYLLNHTDEAQRMKRRGQDTPYWNVFQRKTVFC” reads “not soluble”; that for “GMEQHQVWAYQTKTHSVTLNSVDIPALAADDILVQNQAIGINPVDWKFIKANPINWSNGHVPGVDGAGVIVKVGAKVDSKMLGRRVAYHTSLKRHGSFAEFTVLNTDRVMTLPDNLSFERAAALPCPLLTAWQAFEKIPLTKQREVLIVGFGAVNNLLTQMLNNAGYVVDLVSASLSQALAAKRGVRHLYREPSQVTQKYFAIFDAVNSQNAAALVPSLKANGHIICIQDRIPAPIDPAFTRTISYHEIALGALHDFGDRQDWQILMQQGEALLTLIAQGKMEIAAPDIFRFEQMIEALDHSEQTKLKTVLTLNE”, “soluble”; that for “MIKIKAIERKAGFGKTSKTLWYPAIHLHSDVKFEEFIELVSDETTVSSADIKAVFDRAAKVLIRLLQDGKSIDCGDMGTYRPSITAKAGSGVDSADKVTVELVDKAKVIYTPRMKVKTALKGVRMERAERVLDVPYASSIKPNENNSGGSSSSDNNGHAGL”, “not soluble”. The result for “MKRIPYALVDVFAPAPGAGNRVAVVLDARGMSPEEMQAVAQSLGAAEAAFLLERTGAALSVRFFAPGGEVEFSGHAAVAVGLTAARTGLVPEGTTRLYLHTPTEVLPVELVLEAGEPRKAWVRGPAPRFRDLPPYRALREVLEALGSDERYLHRGLPYGVAFTGLWSLFVPLIAPGVVDALEPEMERLKALCFRLDVATVHAYAPMGPRSFYARDFAPLLGIPEDPVTGSANAALGALLARAGVVPRREGKVLLTVYQGHHLGNPGVVEVQVEYSPTGEPYSVQIGGEAVIVQTGEV” reads “soluble”; that for “MNTLTTTSVVLPAPRPAINQGIDINNEMVLNHTAIYENCLAQVTQENTVENALMLLDPYGTAPLSAYAGVWSLEPAEIIVTVQDAAKTAMPVEHLYTLTAGANLLPVLGLVADTENRIVFSQADTPLAVYTLITQPLPPVDSAEVVLGFPIINVTQPATDANKMAPGFYFITHFDRYNYALDQNGLVRWYVTQDYPSYNFVRIDNGHFLTTSEAKNTYLDMYEFDMMGRLHTFYNLDNQFHHSIWPWDSNTIVAPSEYTSGRPDDLKTNEDGVSVVDLTTGLETAYYDMAKVLDTTRVSRPSGTAPGEDPTVKDWLHINQSYVNETNQLLIASGRHQSAVFGVDLQTQALRFILSTHEDWDDAYQPYLLTPVDSEGVALYDFSKQEDIDAADRDFWTWGQHNVVEIANNTPGIVEFMVFDNGNYRSRDDSKSLLPPDNYSRIVHFVVNMNEMTVMRPFEYGKELGARGYSSCVSAKAIQQNGNIVVHFADCTFDENGRAISCQPGESDIIDPQAGSEAMGLLILQEIAPTEKTVLFEATMTSGYYKNAETNGEGYRYDITSFRVYKMDLYALEHHHHHH”, “soluble”; that for “MGSDKIHHHHHHMRLSELKDAGRSPTLPLSITLVDAAGSADLQLLTLLRVLPGQRYVGAGVWRGTPVLAKLLVGGNAARHFQRELQGVKLLAEQGLTTPTLLADGLKEGEGGWLLFEFLDGAQSLADAWAAVENLPVLADEQHLVLGEALTAVAHMHAQGLWQEDLHLDNLLRHAGKLYLIDGAGIRAETPGQQLSRPRVLENLGVFFAQLPKRLEPFIEELLVHYLLANAEHALPLEALQKQVDKVRNWRQKDYLDKAGRECSLFSVQRTLSGLQAIRRSEVEAMQPVLEQADALIDKGHLYKTGGAASVARIEVNGRQLVIKRYNIKNTAHWFKRFWRPSRAWHSWIEGHRLEFLDIATPRPLAVLEQRVLGLRSRAYLVTEYVDGPDLTACFAPHVESGDAPEEQVDALVHVMQQLIRERISHGDFKGHNLFWHNGQWSLIDLDAMCQHATQLSFAPAYARDRARLLRNWPTGSALHQRLDRLLPKLVD”, “not soluble”. For “MGSDKIHHHHHHMSKLNLVHLNGLRAVEAVGRLGSLQAAASELGVSIGAISQQVIKAEQQLQLQLFERTSRGMVPTDVAEPVLDRLSAGFRHLSGAVALALKSDDTVLTISVAPVFAARWLVHRIGAFSERFPTIRLRMEASDRLIDPSSSDVDLCIRVGRGDWPGVRAELLLEQKVFPVCTPAMAKRLQSPADLLELPIVEDGRAMFSWDVWLAAAGLPGRSVCTRHVFSEASLCLDAALAGQGVLLAWQTIASQQLQQGQLVAPFGPAVPTGLAHYFVSPEGARRNDKVDAFKRWLRDELHEDMTRLAKAIPFLGGPFLKGECG”, the “soluble on expression in E. coli” value was “not soluble”. For “MKAVKPMTDNISVLIMGVDESEIRDKNYGKATRTDALLLATINKNDKSVKLVSIPRDSRVYIKSRDKYDKITHAHVFGGVDSTIDTVENFLDVPVDYYVKFNFKSFIKIVDSLGGITVDVPVEFTEQNSKDEADAVHLKKGRQHLNGEEALALARTRHIDSDYMRGQRQQLVLEAIAQKALSLNSINKIGGLLDAVDKDLKTNLTFDDMMTIAKNSMDSNLKMDKMQVEGTDKYIGGIYYYVPNEKSVNTISTTLQEHLGVTNKNEHKKLLEHHHHHH”, the “soluble on expression in E. coli” value is on record as “soluble”. The same measure for “MGSDKIHHHHHHMDDTTFLSTKEKILEIKPLMESAFGNILGYQELENMLAICTLVPFSNNQILFHQGDRIKGIYIIIKGTVDLIARTLGKGITKIETCLASDFLGETSFLLNEPSATSAVAKDNVTCLFIPSAYFELMPAFSPEAKYKIMKAIGYQACGRLKQLHDKIIDFISHSDMQSLSFLGRVIQTFTQPKIHTLDESGVDKDQIYKKTLFNSFTQDETDELLEHAIPLTANKNCVLIHENETIPVCYIVIYGAVQSNVIQNSKIAKLSVIGPDSLFASTACFLSDTKFSITFITCESATLLKISEAELQYFQKNKPMIWYKLFNLICGSIISLARSLKKLDVRLNIEKYNQ”: “not soluble”.
